# Target: QL9, nonameric variant of p2Ca (2-oxoglutarate dehydrogenase); residues not printed peptide on H-2Ld (mouse)
# Test: value cited from Manning et al. 1999; single-chain
substance,measurement,value
2C TCR,Kd,3.2 µM
